From patent US20240409653A1 (Genmab, published 2024)

Biological target: Human PD-L1 (human, UniProt Q9NZQ7 19-290)
Assay: cell-based or functional assay

Human PD-L1, sequence (Q9NZQ7 19-290): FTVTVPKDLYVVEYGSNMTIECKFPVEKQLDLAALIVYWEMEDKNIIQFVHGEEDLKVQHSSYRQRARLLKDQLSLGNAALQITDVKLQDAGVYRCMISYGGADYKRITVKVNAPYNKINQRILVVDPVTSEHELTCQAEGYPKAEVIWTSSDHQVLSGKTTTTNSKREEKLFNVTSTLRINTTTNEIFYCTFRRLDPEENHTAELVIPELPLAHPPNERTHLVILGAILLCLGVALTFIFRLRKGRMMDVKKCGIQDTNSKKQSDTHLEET

B1: GEN1046 (bispecific antibody, human IgG1, kappa, lambda)
heavy 1: EVQLVESGGGLVQPGRSLRLSCTASGFSLNDYWMSWVRQAPGKGLEWVGYIDVGGSLYYAASVKGRFTISRDDSKSIAYLQMNSLKTEDTAVYYCARGGLTYGFDLWGQGTLVTVSSASTKGPSVFPLAPSSKSTSGGTAALGCLVKDYFPEPVTVSWNSGALTSGVHTFPAVLQSSGLYSLSSVVTVPSSSLGTQTYICNVNHKPSNTKVDKRVEPKSCDKTHTCPPCPAPEFEGGPSVFLFPPKPKDTLMISRTPEVTCVVVAVSHEDPEVKFNWYVDGVEVHNAKTKPREEQYNSTYRVVSVLTVLHQDWLNGKEYKCKVSNKALPAPIEKTISKAKGQPREPQVYTLPPSREEMTKNQVSLTCLVKGFYPSDIAVEWESNGQPENNYKTTPPVLDSDGSFFLYSRLTVDKSRWQQGNVFSCSVMHEALHNHYTQKSLSLSPG
light 1: DIVMTQSPSSLSASVGDRVTITCQASEDISSYLAWYQQKPGKAPKRLIYGASDLASGVPSRFSASGSGTDYTFTISSLQPEDIATYYCHYYATISGLGVAFGGGTKVEIKRTVAAPSVFIFPPSDEQLKSGTASVVCLLNNFYPREAKVQWKVDNALQSGNSQESVTEQDSKDSTYSLSSTLTLSKADYEKHKVYACEVTHQGLSSPVTKSFNRGEC
heavy 2: EVQLLEPGGGLVQPGGSLRLSCEASGSTFSTYAMSWVRQAPGKGLEWVSGFSGSGGFTFYADSVRGRFTISRDSSKNTLFLQMSSLRAEDTAVYYCAIPARGYNYGSFQHWGQGTLVTVSSASTKGPSVFPLAPSSKSTSGGTAALGCLVKDYFPEPVTVSWNSGALTSGVHTFPAVLQSSGLYSLSSVVTVPSSSLGTQTYICNVNHKPSNTKVDKRVEPKSCDKTHTCPPCPAPEFEGGPSVFLFPPKPKDTLMISRTPEVTCVVVAVSHEDPEVKFNWYVDGVEVHNAKTKPREEQYNSTYRVVSVLTVLHQDWLNGKEYKCKVSNKALPAPIEKTISKAKGQPREPQVYTLPPSREEMTKNQVSLTCLVKGFYPSDIAVEWESNGQPENNYKTTPPVLDSDGSFLLYSKLTVDKSRWQQGNVFSCSVMHEALHNHYTQKSLSLSPG
light 2: SYVLTQPPSVSVAPGQTARITCGGNNIGSKSVHWYQQKPGQAPVLVVYDDNDRPSGLPERFSGSNSGNTATLTISRVEAGDEADYYCQVWDSSSDHVVFGGGTKLTVLGQPKAAPSVTLFPPSSEELQANKATLVCLISDFYPGAVTVAWKADSSPVKAGVETTTPSKQSNNKYAASSYLSLTPEQWKSHRSYSCQVTHEGSTVEKTVAPTECS
For B1, the “EC50 value [µg/ml], CD8+ T-cell expansion, donor 02” value was 0.00523 µg/mL, the “EC50 value [µg/ml], CD8+ T-cell expansion, donor 28” value was 0.00754 µg/mL and the “EC50 value [µg/ml], CD8+ T-cell expansion, donor 72” value was 0.00506 µg/mL. The “EC50 value [µg/ml], CD8+ T-cell expansion, donor 89” value was 0.00776 µg/mL and the “EC50 value [µg/ml], CD8+ T-cell expansion, mean of donors” value was 0.0064 µg/mL.
